T1: FAHD1 (Homo sapiens, UniProt Q6P587)
T1 construct: His-tag (N); S-tag (N); made in house; host or cells: E. coli
T1 sequence (Q6P587 25-221): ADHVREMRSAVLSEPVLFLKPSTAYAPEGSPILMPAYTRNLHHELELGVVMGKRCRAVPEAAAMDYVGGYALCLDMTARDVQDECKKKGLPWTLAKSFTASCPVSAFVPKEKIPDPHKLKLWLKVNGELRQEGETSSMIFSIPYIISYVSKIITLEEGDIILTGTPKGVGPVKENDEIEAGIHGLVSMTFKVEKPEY


Key:
[1] = target: T1, FAHD1; experiment: oxalate inhibitor assay (oxaloacetate decarboxylase assay); format: biochemical; settings: purified recombinant wild-type FAHD1, room temperature, pH 7.4, absorbance 255 nm, FIG. 2C; read-out: IC50, inhibition of oxaloacetate decarboxylation by FAHD1
Procedure: (§1) N-terminally His- and S-tagged versions of human wild-type FAHD1 and a double mutant (Asp102Ala, Arg106Ala) were recombinantly expressed in E. coli and purified as reported previously (Pircher et al., J Biol Chem, 2011, 286(42)).
(§2) For measurement of oxaloacetate decarboxylase rates, 1 ml samples of 25 μM to 1 mM oxaloacetate in assay buffer (50 mM Tris-HCl, 100 mM KCl, 1 mM MgCl2, pH 7.4) containing purified FAHD1, FAHD1mut (3-60 μg, depending on substrate concentration) or no enzyme were prepared. Samples were incubated at room temperature and analysed in regular time intervals by measuring absorbance (infinite M200, Tecan) at 255 nm (ε=1070 M^−1 cm^−1) in disposable UV-cuvettes (Brand). Reaction mixtures containing no substrate were used as blank. For the oxalate inhibitor assay, the sample buffer was supplemented with 200 μM sodium oxalate. All rates were corrected for auto-decarboxylation under assay conditions.

[2] = oxaloacetate decarboxylase assay, photometric, enzyme kinetics of purified FAHD1; format: biochemical, human; settings: purified wild-type enzyme, room temperature, pH 7.4, FIG. 2A
Procedure: as §1, §2

Row | Molecule | IC50 [1] [µM] | Km [2] [µM] | Vmax of oxaloacetate degradation [2] [µmol/min/mg]
1 | O=C([O-])C(=O)[O-].[Na+].[Na+] [oxalate, sodium oxalate] | ~20 | – | –
2 | fumarylacetoacetate hydrolase domain containing protein 1 (protein, UniProt Q6P587 25-221, looked up, recombinant human wild-type FAHD1 expressed in E. coli) Oxaloacetate tautomerase …: ADHVREMRSAVLSEPVLFLKPSTAYAPEGSPILMPAYTRNLHHELELGVVMGKRCRAVPEAAAMDYVGGYALCLDMTARDVQDECKKKGLPWTLAKSFTASCPVSAFVPKEKIPDPHKLKLWLKVNGELRQEGETSSMIFSIPYIISYVSKIITLEEGDIILTGTPKGVGPVKENDEIEAGIHGLVSMTFKVEKPEY | – | 32 | 0.21

From patent US20170312343A1, “Uses of FAHD1” (UNIVERSITÄT INNSBRUCK, priority 2014, published 2017)
